Laboratory results from US4016042A, “Substrate for the quantitative determination of enzymes” (Pentapharm A.G., priority 1974, dated 1977).

Substrate: N=C(N)NCCC[C@H](NC(=O)[C@H](Cc1ccccc1)NC(=O)[C@@H]1CCCN1C(=O)c1ccccc1)C(=O)Nc1ccc([N+](=O)[O-])cc1
Assay: Km and vmax determination with substrate (Lineweaver-Burk), plasmin
Format: biochemical
Details: other: plasmin; substrate concentration varied, enzyme constant; measured at 405 nm
Procedure: As is evident from equation (2) constants Km and k3 determine the activity of the enzyme substrate for a given enzyme. For determining these constants the following procedure is followed:
The enzyme and the substrate are mixed in a buffer solution, and the reaction is followed spectrophotometrically for 2 to 30 minutes. The concentration of substrate [S] is varied, whereas the enzyme concentration [E] is kept constant. If the extinction (OD) (= optical density) is plotted in a co-ordinate system as a function of time, a curve is obtained the tangent of which (difference in extinction per minute, Δ OD/minute, from which the quantity in μmoles of pNA/min (v) can be calculated) at time zero corresponds to the ideal course of the hydrolysis. By means of this tangent the initial rate of the hydrolysis can be determined.
If 1/v is plotted against 1/[S], a Lineweaver-Burk diagram (cf. "Kurzes Lehrbuch der Biochemie" by P. KARSON, Georg Thieme-Verlag, Stuttgart, 1967, p. 70) is obtained from which vmax and Km can be determined graphically.
Km and k3 = vmax /E were determined with N^α-Bz-Pro-Phe-Arg-pNA^. HCl (i.e. the substrate prepared according to Example 1) for plasma kallikrein, trypsin, plasmin and thrombin.

B1: plasmin (Homo sapiens) (protein)
chain: VVGGCVAHPHSWPWQVSLRTRFGMHFCGGTLISPEWVLTAAHCLEKSPRPSSYKVILGAHQEVNLEPHVQEIEVSRLFLEPTRKDIALLKLSSPAVITDKVIPACLPSPNYVVADRTECFITGWGETQGTFGAGLLKEAQLPVIENKVCNRYEFLNGRVQSTELCAGHLAGGTDSCQGDSGGPLVCFEKDKYILQGVTSWGLGCARPNKPGVYVRVSRFVTWIEGVMRNN
B1 gave a Km of 140 µM.
